From PMC3735781 (Journal of the American Chemical Society, 2013) come the findings set out here.

What all share (experiment): HPLC steady-state kinetics, amide hydrolysis at lactyl moiety
Data set [1] has as its system CC(=O)N[C@H]1[C@@H]2OC[C@@H](O2)[C@@H](O)[C@@H]1O[C@H](C)C(=O)N[C@@H](C)C(=O)N[C@H](CCC(=O)N[C@@H](CCC[C@@H](N)C(=O)O)C(=O)N[C@H](C)C(=O)O)C(=O)O. The class given is biochemical, Pseudomonas aeruginosa. Particulars: 25 °C (Figure 2 reaction).
Data set [2] concerns the target T1, AmpDh3 (Pseudomonas aeruginosa, UniProt Q9I5D1).
T1 sequence (Q9I5D1 1-255): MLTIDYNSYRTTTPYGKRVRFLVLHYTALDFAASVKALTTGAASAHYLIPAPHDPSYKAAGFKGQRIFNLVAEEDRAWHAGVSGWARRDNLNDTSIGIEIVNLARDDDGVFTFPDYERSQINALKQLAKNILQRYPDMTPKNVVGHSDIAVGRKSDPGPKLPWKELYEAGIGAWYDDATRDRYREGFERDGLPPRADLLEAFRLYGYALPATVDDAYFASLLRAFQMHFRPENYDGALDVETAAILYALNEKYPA
The class given is biochemical. The note with it: 100 μM ZnCl2.

Data set [3] has as its target T2, AmpDh2 (Pseudomonas aeruginosa, UniProt Q9HT86).
T2 sequence (Q9HT86 18-259): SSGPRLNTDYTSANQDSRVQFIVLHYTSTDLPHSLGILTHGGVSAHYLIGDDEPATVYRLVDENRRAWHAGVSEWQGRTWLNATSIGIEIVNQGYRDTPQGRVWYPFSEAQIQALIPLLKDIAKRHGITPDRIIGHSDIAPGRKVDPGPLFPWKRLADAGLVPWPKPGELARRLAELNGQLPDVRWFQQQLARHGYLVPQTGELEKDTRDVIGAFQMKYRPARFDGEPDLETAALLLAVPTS
In kind it is biochemical. Particulars: 100 μM ZnCl2.

Substrate in data set [4]: CC(=O)N[C@H]1[C@@H]2OC[C@@H](O2)[C@@H](O)[C@@H]1O[C@H](C)C(=O)N[C@@H](C)C(=O)N[C@H](CCC(=O)N[C@@H](CCC[C@@H](N)C(=O)O)C(=O)N[C@H](C)C(=O)O)C(=O)O
In kind it is biochemical, Pseudomonas aeruginosa. The note with it: 100 μM ZnCl2.

A word on the Km: it is the concentration of substrate that gives half-maximal velocity. As a reminder, the kcat is the maximal rate divided by the concentration of active sites. Broadly, the kcat/Km is the turnover number divided by the Michaelis constant. Take AmpD (Pseudomonas aeruginosa PAO1): in data set [1], the Michaelis constant (Km) worked out at 1.2 ± 0.3 mM, the kcat is 39.8 ± 3.1 s⁻¹ and the kcat/Km is 33200 ± 7500 M⁻¹ s⁻¹.
Take muramyl tetrapeptide 8 [compound 8]: the Km in data set [2] was 1.4 ± 0.2 mM; in data set [3], 1.8 ± 0.3 mM.

B1: AmpDh3 (Pseudomonas aeruginosa PAO1) (protein)
chain: MLTIDYNSYRTTTPYGKRVRFLVLHYTALDFAASVKALTTGAASAHYLIPAPHDPSYKAAGFKGQRIFNLVAEEDRAWHAGVSGWARRDNLNDTSIGIEIVNLARDDDGVFTFPDYERSQINALKQLAKNILQRYPDMTPKNVVGHSDIAVGRKSDPGPKLPWKELYEAGIGAWYDDATRDRYREGFERDGLPPRADLLEAFRLYGYALPATVDDAYFASLLRAFQMHFRPENYDGALDVETAAILYALNEKYPA
B1: in data set [4], the Km is 4.5 ± 0.6 mM, the kcat stood at 70.6 ± 6.6 s⁻¹ and the catalytic efficiency (kcat/Km) came out at 15700 ± 1900 M⁻¹ s⁻¹.
